Experiment [1] deals with T1, His-LSP (LMOf2365_0639, Listeria monocytogenes surface protein, with N-terminal 6x-histidine tag) (Listeria monocytogenes).
T1 construct: also called Listeria surface protein
T1 chain: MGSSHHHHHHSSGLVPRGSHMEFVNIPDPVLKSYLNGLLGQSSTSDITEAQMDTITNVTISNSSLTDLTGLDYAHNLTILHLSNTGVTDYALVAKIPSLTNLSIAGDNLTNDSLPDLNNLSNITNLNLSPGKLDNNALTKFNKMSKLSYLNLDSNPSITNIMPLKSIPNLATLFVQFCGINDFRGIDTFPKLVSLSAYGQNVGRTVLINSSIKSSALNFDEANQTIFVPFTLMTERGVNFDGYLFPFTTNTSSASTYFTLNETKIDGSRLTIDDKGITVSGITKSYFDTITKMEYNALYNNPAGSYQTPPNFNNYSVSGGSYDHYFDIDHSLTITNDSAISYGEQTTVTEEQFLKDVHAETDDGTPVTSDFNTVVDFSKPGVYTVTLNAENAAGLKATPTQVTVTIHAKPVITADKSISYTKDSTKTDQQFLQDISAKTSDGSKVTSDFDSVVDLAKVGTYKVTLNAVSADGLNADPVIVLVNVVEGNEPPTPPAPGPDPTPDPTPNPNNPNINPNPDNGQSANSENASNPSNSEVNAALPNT
The experiment is described as follows: FACS histograms, clonal yeast-surface display, 20 nM of LSP (FIG. 3B).

The target in experiment [2] is T1, His-LSP (LMOf2365_0639, Listeria …). The experiment is described as follows: flow cytometry, clonal yeast-surface display, 20 nM His-LSP.

Residue numbers refer to the chain shown, from its start.

B1: rcSso7d.LSP.3 (yeast-surface displayed) (designed binder)
chain: MATVKFTYQGEEKQVDISKIKIAKRYGQIIDFSYDEGGGARGWGIVSEKDAPKELLQMLEKQ
notes: also called clone 3; Clone 3
Turning to B1, in experiment [1], the binding result is on record as “binds”.

B2: rcSso7d.LSP.7 (designed binder)
chain: MATVKFTYQGEEKQVDISKIKIAVYRYGQYIYFSYDEGGGASGIGKVSEKDAPKELLQMLEKQ
notes: also called clone 7; Clone 7
Take B2: the binding result in experiment [2] was “binds”.

B3: rcSso7d.LSP.6 (designed binder)
chain: MATVKFTYQGEEKQVDISKIKDVGRHGQHICFWL
notes: also called clone 6; Clone 6
For the molecule B3, in experiment [2], the binding result is on record as “binds”.

B4: rcSso7d.LSP.4 (designed binder)
chain: B3 chain with H26Y, H29R
notes: also called clone 4; Clone 4
In the case of B4, the binding result in experiment [1] was “binds”.

B5: rcSso7d.LSP.2 (designed binder)
chain: B3 chain with H29K, W33L
notes: also called clone 2; Clone 2
For the molecule B5, the binding result in experiment [1] is listed as “binds”.

B6: rcSso7d.LSP.1 (designed binder)
chain: B3 chain with H26S, H29N, W33Y
notes: also called clone 1; Clone 1
As for B6, the binding result in experiment [2] is listed as “binds”.

B7: rcSso7d.LSP.5 (designed binder)
chain: MATVKFTYQGEEKQVDISKIKWVRRAGQWIDFAYDEGGGAKGYGIVSEKDAPKELLQCWKS
notes: also called clone 5; Clone 5
Take B7: the binding result in experiment [2] is “binds”.

(Values after US20230358742A1 (MIT, published 2023).)
